Results from US20240238439A1, “HER3-BINDING ANTIBODY-DRUG CONJUGATE” (priority 2023, published 2024).

How the values were obtained:
[1] = molecular target: FCɣR IA (CD64) (human) (UniProt P12314); test: SPR
[2] = molecular target: FCɣR IIA (CD32a) (human) (UniProt P12318); test: SPR
[3] = molecular target: HER3 on the surface of human cancer cell lines (HCT116, DU145, H358, T-47D, OVCAR8) (UniProt P21860); test: flow cytometry; H358 cells
[4] = molecular target: HER3 on the surface of human cancer cell lines (HCT116, DU145, H358, T-47D, OVCAR8) (UniProt P21860); test: flow cytometry; DU145 cells
[5] = molecular target: HER3 on the surface of human cancer cell lines (HCT116, DU145, H358, T-47D, OVCAR8) (UniProt P21860); test: flow cytometry; HCT116 cells
[6] = molecular target: HER3 on the surface of human cancer cell lines (HCT116, DU145, H358, T-47D, OVCAR8) (UniProt P21860); test: flow cytometry; OVCAR8 cells

FCɣR IA (CD64) (human), sequence (P12314 16-288): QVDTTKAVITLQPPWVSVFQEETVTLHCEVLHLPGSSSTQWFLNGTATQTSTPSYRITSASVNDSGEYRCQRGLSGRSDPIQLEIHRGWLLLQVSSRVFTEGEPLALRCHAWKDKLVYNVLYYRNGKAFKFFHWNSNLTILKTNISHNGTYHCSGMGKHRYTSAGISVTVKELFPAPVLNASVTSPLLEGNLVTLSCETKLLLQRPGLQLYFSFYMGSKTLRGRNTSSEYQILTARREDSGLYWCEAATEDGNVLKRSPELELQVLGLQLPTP
FCɣR IIA (CD32a) (human), sequence (P12318 34-217): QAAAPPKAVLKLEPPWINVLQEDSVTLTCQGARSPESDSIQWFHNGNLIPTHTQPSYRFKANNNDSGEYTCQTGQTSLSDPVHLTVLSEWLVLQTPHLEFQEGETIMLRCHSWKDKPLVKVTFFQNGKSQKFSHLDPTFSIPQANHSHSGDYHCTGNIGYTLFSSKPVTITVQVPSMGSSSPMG

| Kd [1] [nM] | Kd [2] [nM] | EC50 [3] [nM] | EC50 [4] [nM] | EC50 [5] [nM] | EC50 [6] [nM] | Substance |
| --- | --- | --- | --- | --- | --- | --- |
| 6.5 | 56.9 | – | – | – | – | Human IgG1 (+ve control) |
| – | – | 8.23 | 2.4 | 0.756 | 1.01 | Patritumab-DXd |
